We go through two molecules from article PMC2568893, “Role of αBI5 and αBT162 residues in subunit interaction during oligomerization of αB-crystallin” (Molecular Vision, 2008).

Data set [1] concerns the molecule itself. As to the kind of experiment: SEC-MALS; TSK G5000PWXL column, 100 µg protein, 50 mM phosphate, 150 mM NaCl, 0.02% sodium azide, pH 7.2, with the reducing agent TCEP; without it both Cys mutants formed larger oligomers. On the technique in general: Size exclusion chromatography separates by hydrodynamic size, large species first.
Data set [2] has as its target αBT162C mutant of human αB-crystallin (human) (UniProt P02511). Description: FRET or BRET; amine-labelled proteins: Alexa Fluor 350 TFP ester (donor) and Alexa Fluor 488 TFP ester (acceptor); 50 µg of each labelled protein mixed at 37 °C; subunit exchange rate from Ft/F0.

Changes are numbered by the printed parent chain. In names and notes the source's numbering stands.

B1: αBI5C mutant of human αB-crystallin (natural protein, UniProt P02511 1-175, looked up)
chain: MDIACHHPWIRRPFFPFHSPSRLFDQFFGEHLLESDLFPTSTSLSPFYLRPPSFLRAPSWFDTGLSEMRLEKDRFSVNLDVKHFSPEELKVKVLGDVIEVHGKHEERQDEHGFISREFHRKYRIPADVDPLTITSSLSSDGVLTVNGPRKQVSGPERTIPITREEKPAVTAAPKK
modifications: FRET assays only: Alexa Fluor 488 or Alexa Fluor 555 C5-maleimide on the cysteine (thiol-labelled), or Alexa Fluor 350 carboxylic acid TFP ester on amines (amine-labelled, donor); unlabelled in the other experiments
notes: human αB-crystallin (HspB5), 175 amino acids, with I5C; cDNA in pET-23d(+); Homo-oligomer, on average 35 subunits when reduced; also called αB5C
Usually stoichiometry N stands for a count of units in the complex or per binding partner. Turning to B1, in data set [1], the “stoichiometry N” value was 35 subunits. Also, in data set [2], the rate of subunit exchange was 0.000655 s⁻¹ and the subunit interaction rate stood at 6.5e-05 s⁻¹.

B2: αBT162C mutant of human αB-crystallin (natural protein, UniProt P02511 1-175, looked up)
chain: B1 chain with C5I, T162C
modifications: FRET assays only: Alexa Fluor 488 or Alexa Fluor 555 C5-maleimide on the cysteine (thiol-labelled), or Alexa Fluor 488 carboxylic acid TFP ester on amines (amine-labelled, acceptor); unlabelled in the other experiments
notes: human αB-crystallin (HspB5), 175 amino acids, with T162C; cDNA in pET-23d(+); Homo-oligomer, on average 35 subunits when reduced; also called αB162C
Take B2: the “stoichiometry N” value in data set [1] is 35 subunits.
